According to the DeepSol protein solubility set:

Assay: soluble on expression in E. coli; label from the status in PepcDB or PDB records

Row | Sequence | soluble on expression in E. coli
1 | MGSDKIHHHHHHMIPEEIYKILRKQRYQIDGHTAVKLCGWVRKKMLEDKNCYKSKFYGIETHRCIQCTPSVIWCQQNCIFCWRVLPRDIGIDISQIKEPKWEEPEVVYEKILAMHKRIIMGYAGVLDRVGEKKFKEALEPKHVAISLSGEPTLYPYLDELIKIFHKNGFTTFVVSNGILTDVIEKIEPTQLYISLDAYDLDSYRRICGGKKEYWESILNTLDILKEKKRTCIRTTLIRGYNDDILKFVELYERADVHFIELKSYMHVGYSQKRLKKEDMLQHDEILKLAKMLDENSSYKLIDDSEDSRVALLQNENRKINPKL | not soluble
2 | MGSDKIHHHHHHMIQYKRCSEVSIDLVYEAFRDGFSDYIIKMEVSKEDFIKRFFGAEGNSLKHSFVALDGNKSVGVILGGIKDYENIKTMRCGTLAVHPNYRGIGVSQKLFELHKDEAIQNGCKQLFLEVIVGNDRAIRFYNKLGYEKVYDLSYYNLKDMTKIIHKECKGIEVKQLEFPAFKVEIQKWLHFHINWQNDMDYIEKTNHTFYGAYVDNDLKGSICINEQGKISFIFIDKEYRNRGIGSKLLQVARDELNLESLLISFPNNSLLEGFLKKTGFEKNSLAQYEMYVLL | not soluble
3 | MGSDKIHHHHHHMISSITSSIPKDVLYAAAEWYATLYDEDCSENDRQTWQRWLHEDETHRLAWQQVEQIHARFHAVDSQLASSVLSRRGEERRRMLKLLVIASVTGGVGFSLPWDSYAADYRTGTGETRELSIETGMTVWLNTDSALNQQGNPALSQPLTFQLIKGELMLDNQTAHAARLTTPHGDLAAAAYSCQLALRYTSAHSVLSVFSGEVLLQTAVPAAQRVTAGQQVIFTRDRCSEPAPVENFRQSWRKGLLVADSMPLGQLINEISRYHNGYFHVDSAVTNLRISGVFPLHETDRLLDAIVRTLPVKVSRRFSWWVDIRPS | not soluble
4 | MGSDKIHHHHHHMITAEECRTYKEFVDLYQSYLYPLLGARLSRMYSPKNKVIIDMGTGPGYLSIQLAKRTNAHVHAVDINPAMHEIAQEEAKKSGVSSLISFDLEDVHHLSYADQYADFIVSYSCLHHWEDVVKGLKECYRVLAPGGKIVILDTFNPQGSHLEIMRKQIKEPEYFRFVREAFEESYSFEDIHQFVQDAGIPNYSLETFHFLPEDFIESLDELEDAPLWEQNDQSTDHEIESVTWMLTIEKEKEGAL | not soluble
5 | MGSDKIHHHHHHMITIDALGQVCPIPVIRAKKALEGLGEAGGVVAVLVDNDISRQNLQKMAEGMGYQSEYQEKDNGVIEVTIVAGEGCAVETSGTPADSGLVVAIGRNTMGEGSEELGRILLKGFIYSLRELTPPPARLLFFNSGAYLTSKDSNSIEDLKAMAAQGTIIQTCGTCINYYGITEQLAVGQVANMYDIVTAMAEAKRLINI | not soluble
6 | MGSDKIHHHHHHMITVSIVTYKTNLGELSKCLQSLISSLVSQIYIVDNSNERYIADFCQQYPNVIYIGSENVGYGAGHNQALRQVLNSGGKYHLILNSDVYFEPSVLEFLAAYMDAHADVAQVQPNVVYPDGEQQYTCRLLPTPANLIFRRFLPKRMVEKMNIRYQLKFDDHKKEMNVPYHQGSFMFFRLECFKKVGLFDERFFMYPEDIDITRRMHKWYRTMFVPSVTIVHAHRAASYKSKKMLKIHMVNMIKYFNKWGWIVDKERSAWNRKLLEELGYKK | not soluble
7 | MGSDKIHHHHHHMIVALIIHRPLTKRQKMVAYDVEQLEGKVRGALLQGTNSGKTGVIVLGGSSGRVDTTRAGLFANTGARALALQWFGGANQPPGICEIPLETFVDATDLLISRGCDRTVFVGTSKGAEAALLASTIDHRINVVIAISPSSVVLGNIGAGVDGISWPERSSWSFKRSPLDFVPADINWQKDYRDGLVSYRSFFEKCLSNDVQLNERARIPVESSPADLILVAGGDDALWPSGYFARQILQSRQAHGRQATLIFDKDAGHRILLPGETTQRSKLHAHGGSDEADAKLGQNAWRAIRELL | not soluble
8 | MGSDKIHHHHHHMIVAVGKDEEKIKESLEEMKGLCKTLGVEVVEWLWQKRAKPDPATYLGKGKLQKLKEVVEFCEADLVVVDDEITPVQYKNMQSELNVDVLDRTQVILEIFARHATSEEGKLQVEMASLLYELPRLVGKGEELSRLGGGIGTRGPGEPLLEVLRRHIKNRIAQLRKRLKEIEQERNTQRKQRLEKKIPHVSIVGYTNAGKSTLLKVLTDSDVYVADKLFATLEPVTRRLKLKSGRVILVSDTVGFIRKLPHTIVSAFKATLEEIKYSDVLIHLVDASDPYLEEKMKASEKVLEEIGADKIPRILVFNKIDLCPRERIETLKWKYPEALFISAEKRIGLDQLLDRLEEVISQRDVQETLKVPLEKIGQIYALKDRLEILNEDYREGYALITLKTDRETLEMLKRKVAS | not soluble
9 | MGSDKIHHHHHHMIVLFVDFDYFYAQVEEVLNPSLKGKPVVVCVFSGRFEDSGAVATANYEARKFGVKAGIPIVEAKKILPNAVYLPMRKEVYQQVSSRIMNLLREYSEKIEIASIDEAYLDISDKVRDYREAYNLGLEIKNKILEKEKITVTVGISKNKVFAKIAADMAKPNGIKVIDDEEVKRLIRELDIADVPGIGNITAEKLKKLGINKLVDTLSIEFDKLKGMIGEAKAKYLISLARDEYNEPIRTRVRKSIGRIVTMKRNSRNLEEIKPYLFRAIEESYYKLDKRIPKAIHVVAVTEDLDIVSRGRTFPHGISKETAYSESVKLLQKILEEDERKIRRIGVRFSKFIEAIGLDKFFDT | not soluble
10 | MGSDKIHHHHHHMIVLSKRELFAMLPSVDEVLSDNRIVEIINEYPRSLVLESVREVIDLKRQFILRLKEDASNSVTIEFGEIIESAIERVKLNYSLSLKKVINATGTVIHTNLGRSLLSEDIKDELWCAASRYSNLEYDLDNGERGSRYSHLTSTIKRLTGAEDVLVVNNNAAAVLLVLSTMAKGGEAIVSRGELVEVGGSFRIPSIMALSGAELVEVGSTNKTHLKDYKEAITEDTNVLMKVHTSNYRIMGFTESVSIEELVNLGKKYKLPVIEDLGSGVFIDLSKYGLSYEPTVLDSIRQGADVVTFSGDKMLGGPQAGIIVGKKEYIEKMKKNQLTRALRVDKLTICALEATLRMYLDETKAIENIPTLKMLTYKIEELEVKANKLFEKITALNLNANINIEDGFSQVGGGSMPLETISTKVISITPEHMNVSSLEKKLRLSEAHIIARVYDNKYVLDVRTIFDDEFDVIVEELRKAFN | not soluble
11 | MGSDKIHHHHHHMKALMFGWEFPPHILGGLGTASFGLTRGMAMQPDMDITFCIPKPWGDEDQSFLKIVGVNQVPIVWKDVDREYVQQRVSKAGMNADQYYKYRDHIYADFSYRHVTDLGCLEFSGRYPDNLLEEINNYSIVAGVIARTEEYDIIHAHDWLTYPAGIHAKNVSGKPLVIHVHATDYDRSRGNVNPDVYAIEKNGMDNADHIITVSNLTRQTVIEKYHQDPAKVTTVHNAVEPLSPEILAIPDKKGVKDKVITFLGRITMQKGPEYFVEAAAKVLAKAPYARFVMAGSGDMMDQMIRLAAARNISDRFHFTGFMKGKQVYEVLKASDVYVMPSVSEPFGISPLEAMQCGVPSIISKQSGCAEILDYAIKVDYWDIEALADAMYSIITYPAMHEFLKVEGKKEVDNIKWEYAGQKVRRIYDNVIGNK | not soluble
12 | MGSDKIHHHHHHMKAVVQQWYTHPAVRAALTDLADYRPTLATAIEIQQVPAPTFAERPRSLLVSQRMQALGLHDVEVDDLGNVYGRRPGSTARPGLLISAHLDTVFPADTDLSIRYEGERVYGPGIGDNSAGVAGLLRLAEMYQRFDLPNTSDIWFVANVGEEGLGDLRGMRRVVERLRTRLSTVVVIEGCDFGSLHHQAIGVRRFRIEATGPGGHSWGNFGTPSAIHVLVRLAARLTELQVPSSPRTTFNIGTISGGTSVNTIAQHANMLLDLRSVSSAALTDLVNEVYRLVEEVALEYPDVHIQLTKVGDRPSGAIPREHPLVQAAVAAYQMVGAQISFQQSSTDANIPLSLGMPAVCVGLTDGGNAHRTDEYILPFNLSRGMQALLLLSLAANTLETI | not soluble
13 | MGSDKIHHHHHHMKCFFESEEFEKAVEKIDRLYEKVDSIEEAEIAFLREKKPFQGVAVVKEETYTIYKTGEKLVELEDPEKAASIAYILAGEKLLSGGWVRRMVSGLLQAMIVLMEIEDENGWSHSQRVARLAERVGKKLGLSEEKLSLLREYAMLHDVGKIGIEQLMLYTPTRIRIFEQYPQDHTIMGSVFLASLEVLWDVVPIVRHHHENWDGTGYPDGLKGEEIPLEARIISVCDYYDVLTNFVSSEWEGRTKTHEEALEIIKKEAGKKFDPKVVEAFLEIFSDEAVE | not soluble
